In series [1] the target is T1, U2AF65 E162K (human, UniProt P26368 1-475, E162K). The series is described as follows: EMSA; Kd only in figure; Hill 1.84; binding not apparently reduced; EMSA: 40 mM Tris pH 8.0, 5 mM MgCl2, 0.25 ug/uL heparin, 0.01% Triton, 1 mM DTT, room temperature 20 min; 6% native PAGE in 0.5x TBE at 4 C; 15-17 nM biotin-RNA. To be noted: protein: recombinant; tags: N-terminal GST (pGEX6P); label: 5' biotin; single strand. For orientation: A gel shift assay detects complexes by their altered migration in electrophoresis.
T1 sequence (P26368 whole entry E162K, one chain of several): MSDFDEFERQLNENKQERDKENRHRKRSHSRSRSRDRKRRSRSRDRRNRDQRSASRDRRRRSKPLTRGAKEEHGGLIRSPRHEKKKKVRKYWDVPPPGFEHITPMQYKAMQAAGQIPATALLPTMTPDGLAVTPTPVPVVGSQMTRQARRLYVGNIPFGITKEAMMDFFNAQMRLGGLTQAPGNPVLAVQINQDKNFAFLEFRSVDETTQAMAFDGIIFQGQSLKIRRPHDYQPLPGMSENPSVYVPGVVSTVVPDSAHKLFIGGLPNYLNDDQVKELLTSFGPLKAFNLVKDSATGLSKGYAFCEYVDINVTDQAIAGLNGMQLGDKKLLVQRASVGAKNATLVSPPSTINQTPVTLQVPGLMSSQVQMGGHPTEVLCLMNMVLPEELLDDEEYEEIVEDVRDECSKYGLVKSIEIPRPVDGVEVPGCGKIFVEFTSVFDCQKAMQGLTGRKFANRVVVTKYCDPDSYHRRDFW

In series [2] the target is T1, U2AF65 E162K. Kind of series: EMSA; Kd only in figure; Hill 2.23; binding not apparently reduced; EMSA: 40 mM Tris pH 8.0, 5 mM MgCl2, 0.25 ug/uL heparin, 0.01% Triton, 1 mM DTT, room temperature 20 min; 6% native PAGE in 0.5x TBE at 4 C; 15-17 nM biotin-RNA. To be noted: protein: recombinant; tags: N-terminal GST (pGEX6P); label: 5' biotin; single strand.
The target of series [3] is PUF60 H169Y (human, UniProt Q9UHX1 1-559, H169Y). The series is described as follows: EMSA; higher affinity than cr probe; approximate Kd only in figure; Hill 2.4; EMSA: 40 mM Tris pH 8.0, 5 mM MgCl2, 0.25 ug/uL heparin, 0.01% Triton, 1 mM DTT, room temperature 20 min; 6% native PAGE in 0.5x TBE at 4 C; 15-17 nM biotin-RNA. Particulars: protein: recombinant; tags: 2xHis-lipoyl-TEV, removed by TEV; label: 5' biotin; single strand.
PUF60 H169Y, sequence (Q9UHX1 whole entry H169Y): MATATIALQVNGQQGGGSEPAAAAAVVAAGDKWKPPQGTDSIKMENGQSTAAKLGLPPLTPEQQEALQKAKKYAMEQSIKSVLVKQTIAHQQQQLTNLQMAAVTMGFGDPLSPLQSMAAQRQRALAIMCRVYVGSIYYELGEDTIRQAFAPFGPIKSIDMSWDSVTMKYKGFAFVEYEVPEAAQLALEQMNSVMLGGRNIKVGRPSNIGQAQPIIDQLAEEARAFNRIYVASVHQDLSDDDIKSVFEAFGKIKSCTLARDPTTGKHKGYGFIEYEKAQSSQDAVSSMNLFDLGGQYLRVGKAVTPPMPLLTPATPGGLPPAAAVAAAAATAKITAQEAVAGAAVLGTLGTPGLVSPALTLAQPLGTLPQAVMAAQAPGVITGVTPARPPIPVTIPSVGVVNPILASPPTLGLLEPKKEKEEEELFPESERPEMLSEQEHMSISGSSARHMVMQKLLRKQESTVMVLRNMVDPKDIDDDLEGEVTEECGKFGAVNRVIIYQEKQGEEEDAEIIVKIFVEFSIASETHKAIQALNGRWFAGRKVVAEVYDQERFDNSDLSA

CUUUUUGUUUCCUUUUUUUUUUAAUUUAAAGG (ssRNA) [UBE2F-cr3'ss-32]: the binding result in series [1] is reported as “binds”. For the molecule UUUUUUUGUUUUGUUUUGUGUUUUUUGAUAGA (ssRNA) [UBE2F-can3'ss-32], the binding result in series [2] and in series [3] was “binds” each time.

Values taken from PMC7408900, “Cancer-Associated Substitutions in RNA Recognition Motifs of PUF60 and U2AF65 Reveal Residues Required for Correct Folding and 3′ Splice-Site Selection”.
